# Measured values: patent US20130136731
# Tested on: N_EGF_TCS_SK
substance,measurement,value
thrombin,cleavage of the purified construct by thrombin (N-terminal protein sequencing),"The thrombin cleavage was indeed found to be true in case of the purified construct, after treatment with thrombin"
